This note sets out measurements from PMC3947336.

Experiment [1] addresses Bxz2 Int (mycobacteriophage Bxz2 serine-integrase, gene 34) (mycobacteriophage Bxz2). Nature of the experiment: native gel or EMSA.
Experiment [2] deals with Bxz2 MBP-Int fusion protein (mycobacteriophage Bxz2). Nature of the experiment: native gel or EMSA. (A gel shift assay detects complexes by their altered migration in electrophoresis.)

Substance “Bxz2 Int (mycobacteriophage Bxz2 serine-integrase, gene 34) (enzyme)” returned a stoichiometry N in experiment [1] of 2.
Bxz2 MBP-Int fusion protein (enzyme) yielded a stoichiometry N in experiment [2] of 2.

One may read the stoichiometry N as a count of units in the complex or per binding partner.
